Experiments:
[1] = biological target: T1, soluble cynomolgus GPNMB (recombinant extracellular domain) (cynomolgus, UniProt Q14956 23-499 (human entry), limits assumed); assay: SPR binding
T1 chain: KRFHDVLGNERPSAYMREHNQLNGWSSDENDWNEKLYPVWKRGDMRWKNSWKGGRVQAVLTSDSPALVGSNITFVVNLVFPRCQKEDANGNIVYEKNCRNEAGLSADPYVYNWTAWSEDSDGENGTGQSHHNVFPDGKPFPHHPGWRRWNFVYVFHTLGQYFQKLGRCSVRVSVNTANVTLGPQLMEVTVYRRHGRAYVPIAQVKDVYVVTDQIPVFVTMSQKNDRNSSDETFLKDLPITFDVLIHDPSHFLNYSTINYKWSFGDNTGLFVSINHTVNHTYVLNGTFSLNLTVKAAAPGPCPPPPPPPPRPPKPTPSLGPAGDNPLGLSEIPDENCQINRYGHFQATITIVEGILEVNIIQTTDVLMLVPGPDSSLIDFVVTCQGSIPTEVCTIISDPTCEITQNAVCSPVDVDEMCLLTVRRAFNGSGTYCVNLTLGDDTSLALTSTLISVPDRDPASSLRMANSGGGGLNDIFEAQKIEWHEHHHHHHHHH
Method: Binding kinetics of human anti-GPNMB IgG1 antibodies of the present disclosure to human, cynomolgus, and mouse GPNMB were evaluated using a Carterra LSA instrument (Carterra, Salt Lake City, UT). […] A HC200M sensor chip (Carterra) was activated using the single channel flow cell with a 7-minute injection of a 1:1:1 mixture of 100 mM MES pH 5.5, 100 mM sulfo-NHS, 400 mM EDC (all reconstituted in MES pH 5.5; 100 μl of each mixed in vial immediately before running assay). After switching to the multi-channel array flow cell, the antibodies were injected over the activated chip in a 96-spot array for 15 minutes. The remaining unconjugated active groups on the chip were then blocked by injecting 1M Ethanolamine pH 8.5 (Carterra) for 7 minutes using the single channel flow cell.
After priming with running buffer (HBS-EP+, Teknova) with 0.5 mg/ml BSA (Sigma), the immobilized anti-GPNMB antibodies were tested for their ability to bind to several forms of recombinant GPNMB extracellular domain, including human, cynomolgus, and mouse orthologs as described above. Estimates of affinity were generated by injecting each analyte over the entire antibody array using the single channel flow cell. GPNMB analytes were diluted to 2.5, 7.4, 22, 67, 200, and 600 nM in running buffer, and injected in serial from lowest to highest concentration without regeneration. Two buffer blanks were run between each series (one species per series). Data were processed and analyzed using Kinetics high-throughput kinetics analysis software (Carterra).

[2] = biological target: T2, full-length untagged human GPNMB expressed on cells (human, UniProt Q14956 23-572); assay: cell-based or functional assay
T2 sequence: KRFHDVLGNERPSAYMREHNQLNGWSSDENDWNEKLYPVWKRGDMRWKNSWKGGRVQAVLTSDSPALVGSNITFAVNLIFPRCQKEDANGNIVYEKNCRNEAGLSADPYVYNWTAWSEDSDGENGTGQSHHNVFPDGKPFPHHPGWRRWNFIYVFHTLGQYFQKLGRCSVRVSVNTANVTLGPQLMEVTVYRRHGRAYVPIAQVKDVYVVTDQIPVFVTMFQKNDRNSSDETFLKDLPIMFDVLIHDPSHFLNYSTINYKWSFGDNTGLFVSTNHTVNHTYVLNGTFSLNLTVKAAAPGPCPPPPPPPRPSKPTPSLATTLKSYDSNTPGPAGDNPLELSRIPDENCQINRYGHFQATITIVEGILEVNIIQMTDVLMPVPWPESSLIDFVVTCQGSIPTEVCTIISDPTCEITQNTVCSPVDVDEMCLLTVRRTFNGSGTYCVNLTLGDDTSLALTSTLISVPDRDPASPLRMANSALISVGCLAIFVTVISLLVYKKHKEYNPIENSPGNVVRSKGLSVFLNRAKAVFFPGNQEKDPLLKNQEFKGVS

[3] = biological target: T2, full-length untagged human GPNMB …; assay: FACS titration, FS293-huGPNMB+ cells
Method: Cell-based binding measurements were also performed to measure the apparent affinities of anti-GPNMB antibodies of the present disclosure to cell-surface expressed GPNMB. Serial dilutions of the monoclonal anti-GPNMB antibodies were added to 100,000 Freestyle293-huGPNMB+ or B16F10 cells and allowed to achieve binding equilibrium at 4° C. After addition of fluorescently labeled secondary antibody and brief washing steps, MFI values as a function of titrated antibody concentration was recorded via FACS analysis. Curves were fit using nonlinear regression analysis with Graphpad Prism 6 software.

B1: anti-GPNMB antibody GPN-48 (antibody, human IgG1, V domains shown)
VH: QVQLQQSGPELVKPGASVKLSCRASGYGFSSFWMNWVKQRPGKGLEWIGRIYPGKGDTLYNGKFKDKATLTADESSSTAYMQLSSLTSEDSAVYFCARSIYYYDYWYFDVWDTGTTVTVSS
VL: DIVMTQSHKFMSTSVGDRVNITCKASQDVNSAIAWYQQKPGQSPKLLIYSASYRFIGVPDRFTGSGSGTGFTFTISSVQAEDLAVYYCQQHYTTPLTFGAGTKLELK
notes: chimeric
binding result [1]: binds
CD40 (FoB) [2]: 1.06 FoB
CD80 (FoB) [2]: 1.06 FoB
GCase (FoB) [2]: 1.02 FoB
PDL1 (FoB) [2]: 1.14 FoB
EC50 [3]: 18.8 nM

B2: anti-GPNMB antibody GPN-38 (antibody, human IgG1, V domains shown)
VH: QVQLQQPGAELVRPGTSVRLSCKASGYTFTSYWIHWVKQRPGRGLEWIGVIDPSDSYTNYNQQFNVKATLTVDTSSSAAYMQLSSLTSEDSAVYYCARGLITAVNWYFDVWGTGTTVTVSS
VL: DIQMTQSPASLSTSVGEIVTITCRASENIYSYLTWYQQKQGKSPQLLVYNAKTLAEGVPSRFSGSGSGTQFSLKINSLQPEDFGTYYCQHHYGTPLTFGSGTKLEIK
notes: chimeric
binding result [1]: binds
CD40 (FoB) [2]: 1.01 FoB
CD80 (FoB) [2]: 1.03 FoB
PDL1 (FoB) [2]: 1.03 FoB
EC50 [3]: 0.99 nM

B3: anti-GPNMB antibody GPN-41 (antibody, human IgG1, V domains shown)
VH: QLQLQQSGTEVVKPGASVKIPCKASGYAFSSYWMNWVKQRPGKGLEWIGQIYPGDGDTNDNGKFEGKATLTVDKSSNTAYIQLSSLTSEDSAVYFCARSPLHLRGSMDYWGQGTSVTVSS
VL: SIVMTQTPKFLLVSAGDRVTITCKASQSVSNDVAWFQQKPGQSPELLIYSASNRYTGVPDRFTASGYGTDFTFTISAVQAEDLAVYFCQQNYYSPFTFGGGTRLEIK
notes: chimeric
binding result [1]: binds
EC50 [3]: 3.88 nM

B4: anti-GPNMB antibody GPN-65 (antibody, human IgG1, V domains shown)
VH: QLQLQQSGTEVVKPGASVKIPCKASGYAFSSYWMNWVKQRPGKGLEWIGQIYPGDGDTNDNGKFEGKATLTVDKSSNTAYIQLSSLTSEDSAVYFCARSPLHLRGSMDYWGQGTSVTVSS
VL: SIVMTQTPKFLLVSAGDRVTITCKASQSVSNDVAWFQQKPGQSPELLIYSASNRYTGVPDRFTGSGYGTDFTFTISTVQAEDLAVYFCQQNYYSPFTFGGGTRLEIK
notes: chimeric
binding result [1]: binds
EC50 [3]: 2.6 nM
